Where “and” joins values, the source holds several entries; their conditions need not be identical. Equal entries are not always repeated.
Settings: Staphylococcus aureus; pH 7; 25 °C; Thermal; CD; Hepes-NaOH 20 mM; NaCl 170 mM; reversible: Yes; whole UniProt chain shown

B1: wild type, Q9EYL5 (protein)
chain: MTKKLLTLFIVSMLILTACGKKESATTSSKNGKPLVVVYGDYKCPYCKELDEKVMPKLRKNYIDNHKVEYQFVNLAFLGKDSIVGSRASHAVLMYAPKSFLDFQKQLFAAQQDENKEWLTKELLDKHIKQLHLDKETENKIIKDYKTKDSKSWKAAEKDKKIAKDNHIKTTPTAFINGEKVEDPYDYESYEKLLKDKIK
  unfolding free energy: 7.19 kcal/mol and 7.14 kcal/mol

Reference: FireProtDB (doi:10.1074/jbc.m707838200)
